According to paper PMC10786891, “Massively parallel profiling of RNA-targeting CRISPR-Cas13d”:
Where a chain is given by its changes, count along the chain named. Names may count otherwise.

T1: EsCas13d, nuclease-dead (Eubacterium siraeum, UniProt B0MS50, R295A;H300A;R849A;H854A)
T1 sequence: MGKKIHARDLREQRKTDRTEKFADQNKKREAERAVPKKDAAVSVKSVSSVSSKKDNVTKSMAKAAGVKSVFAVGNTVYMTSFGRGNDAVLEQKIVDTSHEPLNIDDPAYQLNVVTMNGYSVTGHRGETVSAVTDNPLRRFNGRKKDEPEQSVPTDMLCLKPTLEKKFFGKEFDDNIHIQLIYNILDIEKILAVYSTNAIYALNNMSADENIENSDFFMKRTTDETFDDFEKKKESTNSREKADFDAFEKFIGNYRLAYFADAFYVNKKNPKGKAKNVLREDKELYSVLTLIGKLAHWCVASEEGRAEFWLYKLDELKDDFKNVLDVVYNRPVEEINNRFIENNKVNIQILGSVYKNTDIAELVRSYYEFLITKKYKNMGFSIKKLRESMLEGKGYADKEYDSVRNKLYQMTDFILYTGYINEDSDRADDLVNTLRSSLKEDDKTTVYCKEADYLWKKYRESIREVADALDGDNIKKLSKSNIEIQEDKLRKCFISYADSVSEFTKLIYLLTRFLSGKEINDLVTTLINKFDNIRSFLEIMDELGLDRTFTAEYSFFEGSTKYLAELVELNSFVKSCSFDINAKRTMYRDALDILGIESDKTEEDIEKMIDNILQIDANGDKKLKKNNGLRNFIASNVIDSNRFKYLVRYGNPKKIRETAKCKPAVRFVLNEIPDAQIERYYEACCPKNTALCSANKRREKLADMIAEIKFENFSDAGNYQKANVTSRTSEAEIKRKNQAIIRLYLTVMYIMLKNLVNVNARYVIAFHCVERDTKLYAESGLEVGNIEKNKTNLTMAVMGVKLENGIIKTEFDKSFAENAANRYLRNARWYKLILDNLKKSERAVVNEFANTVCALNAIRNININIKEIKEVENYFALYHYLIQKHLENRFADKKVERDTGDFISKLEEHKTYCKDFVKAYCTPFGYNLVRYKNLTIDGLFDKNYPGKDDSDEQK

B1: target 1 insU 3' of 18,insU 3' of 5 (mixed)
RNA 1: CACCCGUGCAAAAAUGCAGGGGUCUAAAACUGAGCGGAUAACCUCUCUAUGG
RNA 2: GGGAAUGGAUCCACAUCUACGAAUUCGUACCAUAUGAGAGGUUAUCCGUCUCACCGAGAUCGGAAGAGCACACGU
B2: target 1 U3A,A20U (mixed)
RNA 1: B1 RNA 1
RNA 2: GGGAAUGGAUCCACAUCUACGAAUUCGUACCUUAGAGAGGUUAUCCGCACACCGAGAUCGGAAGAGCACACGU
B3: target 1 U3A,G12A (mixed)
RNA 1: B1 RNA 1
RNA 2: B2 RNA 2 with U32A, G40A
B4: target 1 insG 3' of 10,insG 3' of 3 (mixed)
RNA 1: B1 RNA 1
RNA 2: GGGAAUGGAUCCACAUCUACGAAUUCGUACCAUAGAGAGGUUGAUCCGCUGCACCGAGAUCGGAAGAGCACACGU
B5: target 1 C2G,G15U (mixed)
RNA 1: B1 RNA 1
RNA 2: B2 RNA 2 with U32A, G37U, A49U, C50G
B6: target 1 G12A,G15U (mixed)
RNA 1: B1 RNA 1
RNA 2: B2 RNA 2 with U32A, G37U, G40A, A49U
B7: target 1 insA 3' of 12,insG 3' of 3 (mixed)
RNA 1: B1 RNA 1
RNA 2: B4 RNA 2 with U41A, G43U
B8: target 1 A18U,C21U (mixed)
RNA 1: B1 RNA 1
RNA 2: B2 RNA 2 with C31U, U32A, A34U, A49U
B9: target 1 insC 3' of 12,insU 3' of 9 (mixed)
RNA 1: B1 RNA 1
RNA 2: B4 RNA 2 with U41C, G43U, C46U, G48C, C49G, U50C, G51U
B10: target 1 A1G,A18G (mixed)
RNA 1: B1 RNA 1
RNA 2: B2 RNA 2 with U32A, A34G, A49U, A51G
B11: target 1 insU 3' of 15,insG 3' of 2 (mixed)
RNA 1: B1 RNA 1
RNA 2: B4 RNA 2 with A38U, G39A, U41G, G43U, G51C, C52G
B12: target 1 insG 3' of 14,insC 3' of 1 (mixed)
RNA 1: B1 RNA 1
RNA 2: B4 RNA 2 with U41G, G43U, G51C, C52A, A53C
B13: target 1 insA 3' of 10,insU 3' of 2 (mixed)
RNA 1: B1 RNA 1
RNA 2: B4 RNA 2 with G43A, G51C, C52U
B14: target 1 insU 3' of 17,insC 3' of 15 (mixed)
RNA 1: B1 RNA 1
RNA 2: GGGAAUGGAUCCACAUCUACGAAUUCGUACCAUAGUAGCAGGUUAUCCGCUCACCGAGAUCGGAAGAGCACACGU
B15: target 1 C6U,G15U (mixed)
RNA 1: B1 RNA 1
RNA 2: B2 RNA 2 with U32A, G37U, C46U, A49U
B16: target 1 insG 3' of 14,insA 3' of 2 (mixed)
RNA 1: B1 RNA 1
RNA 2: B4 RNA 2 with U41G, G43U, G51C, C52A
B17: target 1 insG 3' of 14,insG 3' of 3 (mixed)
RNA 1: B1 RNA 1
RNA 2: B4 RNA 2 with U41G, G43U

Molecular target: T1, EsCas13d, nuclease-dead
Test: crRNA (strand 1, pre-loaded); Mg2+; 40 mM Tris-HCl pH 7.5, 150 mM NaCl, 6 mM MgCl2, 1 mM DTT, 0.1% Tween-20, 0.2 mg/ml BSA; 25 C; 10 min per concentration, then washed
Details: tags: His6-TwinStrep-SUMO cleaved; N-terminal SNAP kept (SNAP-Surface 488); label: 3' end held by stalled T7 RNA polymerase

B1 and B2 are within error of each other in Kd: 48 ± 5 nM for the first, 44 ± 4 nM for the second.

Compared with B3, B4 is 6.9-fold higher in Kd: 4.12 ± 0.33 nM for the first, 28.4 ± 2.8 nM for the second. The first binds more tightly here.

B5 and B6 are within error of each other in Kd: 33 ± 13 nM for the first, 18.7 ± 2.5 nM for the second.

Compared with B7, B8 is 2.9-fold lower in Kd: 18.7 ± 1.6 nM for the first, 6.5 ± 0.32 nM for the second. The second binds more tightly here.

Going from B9 to B10, the Kd rises from 14 ± 2.2 nM to 74 ± 21 nM (5.3-fold).

B11 and B12 are within error of each other in Kd: 9.7 ± 0.7 nM for the first, 10.4 ± 0.4 nM for the second.

First: B13
Second: B14
The Kd of the first is 1.9-fold lower: 13.8 ± 0.7 nM for the first, 26.1 ± 1.8 nM for the second.

Compared with B15, B16 is 2.5-fold lower in Kd: 32.9 ± 1.9 nM for the first, 13.3 ± 1.6 nM for the second. The second binds more tightly here.

B17 showed a Kd of 7.9 ± 0.4 nM.
